Columns and labels:
[1] = Ozone exposure forced degradation of human PTH (1-34) solution (Test Example 2); assay type: physicochemical; conditions: solution with sucrose and sodium chloride, stirred; ozone approximately 0.08 ppm, about 20 hours
Procedure: A quantity of 4.00 g of sucrose and 0.20 g of sodium chloride were weighed out and dissolved by adding water for injection to make a placebo solution. […] An environment having an ozone concentration of approximately 0.08 ppm by ozone concentration meter was produced using an ozone generator and a blower (initial wind speed approximately 7.2 m/s) to circulate the ozone and make the concentration uniform in a tray having a 40 cm long×90 cm wide×100 cm high glass door. Approximately 15 mL of the reaction stock solution was dispensed into each 20 mL vial. […] Furthermore, the purity was confirmed in accordance with the test conditions of Test Example 1. The degraded solution was freeze dried, and a solution dissolved by a suitable amount of water for injection was taken as a forced-degradation solution. The analogs were fractionated under the following conditions using this solution.

[2] = HPLC area percentage method: amount of PTH analogs in freeze-dried preparations and bulk drug (Test Example 1); assay type: physicochemical; conditions: human PTH (1-34) bulk drug lot, HPLC peak area %
Procedure: The area percentage method using HPLC is a simple method for assessing the purity of a freeze-dried preparation containing PTH peptide and the amount of analogs. A solution obtained by weighing out 0.25 g of benzalkonium chloride and bringing it to 50 mL by adding 50 mM sulfate buffer (pH 2.3) serves as the loading buffer. Each preparation of the examples and comparative examples is dissolved by 1 mL of physiological saline solution, and a 9:1 mixture of this solution and the loading buffer serves as the sample solution. A quantity of 100 μL of sample solution is tested by HPLC under the following conditions. Furthermore, benzalkonium chloride was used to prevent the peptide that is the target of measurement from attaching to the instrument and the like.
Detector: Ultraviolet absorptiometer (measurement wavelength: 214 nm)
Column: Stainless steel tube 150 mm long having an inner diameter of 4.6 mm packed with 3.5 μm of octadecylsilylated silica gel
Column temperature: Constant temperature near 40° C.
Mobile phase: Mobile phase A: Dissolve 28.4 g of anhydrous sodium sulfate in 900 mL of water and bring to 1000 mL by adding water after adding phosphoric acid to adjust the pH to 2.3. Add 100 mL of acetonitrile to this 900 mL of liquid.
Mobile phase B: Dissolve 28.4 g of anhydrous sodium sulfate in 900 mL of water and bring to 1000 mL by adding water after adding phosphoric acid to adjust the pH to 2.3 Add 500 mL of acetonitrile to 500 mL of this liquid.
Mobile phase feed: Concentration gradient control is provided by varying the mixture ratio of mobile phase A and mobile phase B as follows.
Sample temperature: Constant temperature near 5° C.
Detection time: 45 minutes after injection of the sample solution. However, this is from the back of the solvent peak.
Calculation method: The amount of each PTH analog and the total amount thereof was determined by performing liquid chromatography under the above conditions, measuring each peak area by automatic integration, and performing calculation using Formulas 1 and 2. Furthermore, the total peak area was the sum total of the area of all peaks detected by performing liquid chromatography under the above conditions. […] Amount of each PTH analog (%)=(peak area of each analog/total peak area)×100 Formula 1: Total amount of PTH analogs (%)=(sum total of peak areas of each analog/total peak area)×100 Formula 2:

**Q.** Which results are given for `CC[C@H](C)[C@H](NC(=O)[C@H](CCC(=O)O)NC(=O)[C@H](CO)NC(=O)[C@@H](NC(=O)[C@@H](N)CO)C(C)C)C(=O)N[C@@H](CCC(N)=O)C(=O)N[C@@H](CC(C)C)C(=O)N[C@@H](CCSC)C(=O)N[C@@H](Cc1cnc[nH]1)C(=O)N[C@@H](CC(N)=O)C(=O)N[C@@H](CC(C)C)C(=O)NCC(=O)N[C@@H](CCCCN)C(=O)N[C@@H](Cc1cnc[nH]1)C(=O)N[C@@H](CC(C)C)C(=O)N[C@@H](CC(N)=O)C(=O)N[C@@H](CO)C(=O)N[C@@H](CCSC)C(=O)N[C@@H](CCC(=O)O)C(=O)N[C@@H](CCCN=C(N)N)C(=O)N[C@H](C(=O)N[C@@H](CCC(=O)O)C(=O)N[C@@H](Cc1c[nH]c2ccccc12)C(=O)N[C@@H](CC(C)C)C(=O)N[C@@H](CCCN=C(N)N)C(=O)N[C@@H](CCCCN)C(=O)N[C@@H](CCCCN)C(=O)N[C@@H](CC(C)C)C(=O)N[C@@H](CCC(N)=O)C(=O)N[C@@H](CC(=O)O)C(=O)N[C@H](C(=O)N[C@@H](Cc1cnc[nH]1)C(=O)N[C@@H](CC(N)=O)C(=O)N[C@@H](Cc1ccccc1)C(=O)O)C(C)C)C(C)C` [Human PTH (1-34)]?
**A.** Purity after exposure to ozone atmosphere [1]: approximately 20%; Total amount of human PTH (1-34) analogs after exposure to ozone atmosphere [1]: 80%

**Q.** For human PTH (1-34) [lot A], which “Amount of (6) Human PTH (1-34)-Met 8 [O]” value ([2]; listed as A) is on record?
**A.** Its value is 0.08%.

**Q.** What does the source list for human PTH (1-34) [lot B]?
**A.** Amount of (6) Human PTH (1-34)-Met 8 [O] ([2]; listed as B): 0.07%; Amount of (7) Human PTH (1-34)-Met 18 [O] ([2]; listed as B): 0.09%

**Q.** What does the source list for human PTH (1-34) [lot D]?
**A.** Amount of (6) Human PTH (1-34)-Met 8 [O] ([2]; listed as D): 0.05%; Amount of (7) Human PTH (1-34)-Met 18 [O] ([2]; listed as D): 0.06%

**Q.** Which “Amount of (6) Human PTH (1-34)-Met 8 [O]” value ([2]; listed as E) does the source give for human PTH (1-34) [lot E] here?
**A.** The value was 0.05%.

**Q.** And the “Amount of (7) Human PTH (1-34)-Met 18 [O]” value (from here on “Amount of (7) Human PTH”) ([2]; listed as E)?
**A.** The value was 0.07%.

**Q.** For human PTH (1-34) [lot F], which “Amount of (6) Human PTH (1-34)-Met 8 [O]” value ([2]; listed as F) is on record?
**A.** The value was 0.14%.

**Q.** What about the “Amount of (7) Human PTH” value ([2]; listed as F) of the same compound?
**A.** The value was 0.21%.

**Q.** Which “Amount of (6) Human PTH (1-34)-Met 8 [O]” value ([2]; listed as G) does the source give for human PTH (1-34) [lot G] here?
**A.** Its value is 0.17%.

**Q.** And the “Amount of (7) Human PTH” value ([2]; listed as G)?
**A.** Its value is 0.23%.

**Q.** For human PTH (1-34) [lot H], which “Amount of (6) Human PTH (1-34)-Met 8 [O]” value ([2]; listed as H) is on record?
**A.** Its value is 0.06%.

**Q.** What about the “Amount of (7) Human PTH” value ([2]; listed as H) of the same compound?
**A.** Its value is 0.09%.

— patent US10683335B2, “Freeze-dried preparation containing high-purity PTH and method for producing same” (ASAHI KASEI PHARMA CORPORATION, priority 2011, dated 2020)
